Results taken from patent US20250145690A1 (US Dept. of Health and Human Services, published 2025).

Experiments:
Experiment in all cases: bead flow cytometry, AUC minus CD4
[1] = molecular target: SARS-CoV-2 spike N-terminal domain (NTD), recombinant (SARS-CoV-2, UniProt P0DTC2 14-305)
[2] = molecular target: T1, HCoV-229E spike protein (Sino Biological 40605-V08B) (HCoV-229E, UniProt P15423 16-1115)
T1 sequence: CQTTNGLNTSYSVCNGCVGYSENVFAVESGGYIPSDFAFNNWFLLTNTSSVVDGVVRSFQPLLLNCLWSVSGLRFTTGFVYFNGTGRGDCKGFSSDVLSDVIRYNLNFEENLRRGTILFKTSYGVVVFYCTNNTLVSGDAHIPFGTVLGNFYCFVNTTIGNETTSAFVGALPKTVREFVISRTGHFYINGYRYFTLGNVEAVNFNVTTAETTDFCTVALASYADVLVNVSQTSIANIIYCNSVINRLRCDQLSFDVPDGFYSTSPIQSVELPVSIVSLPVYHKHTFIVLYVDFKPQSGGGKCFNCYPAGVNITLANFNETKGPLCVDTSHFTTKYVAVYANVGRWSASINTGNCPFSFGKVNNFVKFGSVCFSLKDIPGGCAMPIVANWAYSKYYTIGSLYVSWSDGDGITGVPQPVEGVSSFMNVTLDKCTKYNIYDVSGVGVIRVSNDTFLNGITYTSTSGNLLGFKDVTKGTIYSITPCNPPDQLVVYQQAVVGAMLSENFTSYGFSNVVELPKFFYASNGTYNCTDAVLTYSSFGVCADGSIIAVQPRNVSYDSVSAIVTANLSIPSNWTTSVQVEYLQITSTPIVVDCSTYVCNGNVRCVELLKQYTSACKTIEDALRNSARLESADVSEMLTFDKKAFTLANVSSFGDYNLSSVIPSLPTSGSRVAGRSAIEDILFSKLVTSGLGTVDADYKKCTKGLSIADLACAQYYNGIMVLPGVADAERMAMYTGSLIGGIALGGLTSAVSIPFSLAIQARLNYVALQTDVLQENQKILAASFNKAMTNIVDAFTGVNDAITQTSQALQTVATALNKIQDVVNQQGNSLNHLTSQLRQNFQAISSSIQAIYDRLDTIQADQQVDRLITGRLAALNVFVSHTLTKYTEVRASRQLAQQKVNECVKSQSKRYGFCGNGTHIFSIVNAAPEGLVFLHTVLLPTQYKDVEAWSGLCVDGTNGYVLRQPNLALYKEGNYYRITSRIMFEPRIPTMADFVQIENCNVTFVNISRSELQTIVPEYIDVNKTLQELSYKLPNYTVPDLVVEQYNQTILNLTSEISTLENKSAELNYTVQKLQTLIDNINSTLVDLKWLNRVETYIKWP

[3] = molecular target: T2, HCoV-NL63 spike protein (Sino Biological 40604-V08B) (HCoV-NL63, UniProt Q6Q1S2 19-1296)
T2 sequence: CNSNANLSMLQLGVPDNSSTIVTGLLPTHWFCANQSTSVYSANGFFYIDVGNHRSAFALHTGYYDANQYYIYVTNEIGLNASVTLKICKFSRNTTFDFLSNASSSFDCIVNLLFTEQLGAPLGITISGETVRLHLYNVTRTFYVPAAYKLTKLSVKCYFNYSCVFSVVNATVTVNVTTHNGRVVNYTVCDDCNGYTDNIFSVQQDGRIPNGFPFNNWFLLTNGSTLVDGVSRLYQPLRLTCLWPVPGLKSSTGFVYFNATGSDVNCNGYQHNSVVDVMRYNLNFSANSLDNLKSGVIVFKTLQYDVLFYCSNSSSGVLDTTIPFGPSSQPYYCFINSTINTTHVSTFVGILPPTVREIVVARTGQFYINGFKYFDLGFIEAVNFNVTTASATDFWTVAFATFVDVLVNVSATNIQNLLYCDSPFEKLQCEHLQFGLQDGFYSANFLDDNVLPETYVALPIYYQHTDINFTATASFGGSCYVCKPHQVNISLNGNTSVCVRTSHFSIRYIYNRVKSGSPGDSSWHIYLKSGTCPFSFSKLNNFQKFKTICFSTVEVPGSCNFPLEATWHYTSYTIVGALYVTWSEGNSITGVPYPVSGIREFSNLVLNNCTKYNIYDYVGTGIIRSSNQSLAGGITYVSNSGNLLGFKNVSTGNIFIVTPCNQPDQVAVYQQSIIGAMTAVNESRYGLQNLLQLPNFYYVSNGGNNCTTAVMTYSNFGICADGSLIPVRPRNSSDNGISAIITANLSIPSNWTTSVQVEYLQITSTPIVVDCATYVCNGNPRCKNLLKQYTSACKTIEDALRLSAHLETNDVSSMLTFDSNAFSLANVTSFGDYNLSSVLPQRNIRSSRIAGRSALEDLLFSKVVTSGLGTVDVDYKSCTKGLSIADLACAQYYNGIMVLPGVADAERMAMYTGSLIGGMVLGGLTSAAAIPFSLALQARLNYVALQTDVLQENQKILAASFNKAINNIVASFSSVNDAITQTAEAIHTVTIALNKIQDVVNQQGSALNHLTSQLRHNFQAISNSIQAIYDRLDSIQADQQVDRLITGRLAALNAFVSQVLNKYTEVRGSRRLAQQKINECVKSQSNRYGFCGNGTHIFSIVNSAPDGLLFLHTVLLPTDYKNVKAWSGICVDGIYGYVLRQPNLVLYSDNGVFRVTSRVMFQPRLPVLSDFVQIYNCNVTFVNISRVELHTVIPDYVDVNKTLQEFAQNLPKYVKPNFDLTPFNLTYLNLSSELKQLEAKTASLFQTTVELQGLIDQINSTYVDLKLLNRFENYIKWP

[4] = molecular target: T3, HCoV-HKU1 spike protein (Sino Biological 40606-V08B) (HCoV-HKU1, UniProt Q0ZME7 13-1295)
T3 sequence: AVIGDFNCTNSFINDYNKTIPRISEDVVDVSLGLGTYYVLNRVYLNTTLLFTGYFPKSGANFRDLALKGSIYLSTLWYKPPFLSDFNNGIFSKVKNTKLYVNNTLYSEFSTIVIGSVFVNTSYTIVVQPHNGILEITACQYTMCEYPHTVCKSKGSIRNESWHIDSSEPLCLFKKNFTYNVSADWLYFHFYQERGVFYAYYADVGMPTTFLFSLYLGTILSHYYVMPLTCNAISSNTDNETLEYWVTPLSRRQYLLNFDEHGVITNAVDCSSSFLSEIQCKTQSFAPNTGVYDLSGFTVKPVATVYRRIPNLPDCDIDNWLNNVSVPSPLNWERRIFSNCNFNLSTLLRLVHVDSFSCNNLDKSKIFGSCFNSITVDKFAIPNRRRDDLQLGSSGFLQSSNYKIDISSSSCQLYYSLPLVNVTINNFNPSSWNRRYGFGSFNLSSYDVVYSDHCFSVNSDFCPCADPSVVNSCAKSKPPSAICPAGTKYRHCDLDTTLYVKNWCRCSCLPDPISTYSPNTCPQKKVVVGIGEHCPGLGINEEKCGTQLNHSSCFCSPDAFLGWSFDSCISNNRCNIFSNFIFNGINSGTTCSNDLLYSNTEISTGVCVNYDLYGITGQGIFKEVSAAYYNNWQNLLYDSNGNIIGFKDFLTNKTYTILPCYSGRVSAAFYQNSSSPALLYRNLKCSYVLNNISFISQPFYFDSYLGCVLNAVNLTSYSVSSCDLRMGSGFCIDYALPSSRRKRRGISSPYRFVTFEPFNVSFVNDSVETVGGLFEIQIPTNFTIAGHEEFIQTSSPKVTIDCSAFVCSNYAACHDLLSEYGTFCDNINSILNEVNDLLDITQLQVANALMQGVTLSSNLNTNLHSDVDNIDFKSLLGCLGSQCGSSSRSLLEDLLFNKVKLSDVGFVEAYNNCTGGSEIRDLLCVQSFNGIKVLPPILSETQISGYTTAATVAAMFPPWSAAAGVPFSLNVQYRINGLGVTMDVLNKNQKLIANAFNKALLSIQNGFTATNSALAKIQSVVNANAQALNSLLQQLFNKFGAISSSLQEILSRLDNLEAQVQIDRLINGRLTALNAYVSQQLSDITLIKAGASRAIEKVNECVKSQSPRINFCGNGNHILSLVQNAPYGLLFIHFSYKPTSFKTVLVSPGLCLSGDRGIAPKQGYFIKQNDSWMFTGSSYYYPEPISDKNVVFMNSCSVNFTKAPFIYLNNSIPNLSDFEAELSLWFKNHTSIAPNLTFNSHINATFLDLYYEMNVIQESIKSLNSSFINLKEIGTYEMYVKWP

Measured: binding result

B1: COV44-26 (antibody, V domains shown)
VH: QVQLVQSGAEVKKPGASVKVSCKASGYTFSNFYMNWVRQAPGQGLEWVGLISPSAGYTAYAQMFQGRVTMTRDTSTSTVYMELSSLRSEDTAVYYCARVAVAGPNDYWGQGTLVTVSS
VL: EIVLTQSPGTLSLSPGERATLSCRASQSISSSYLAWYQQKPGQAPRLVIFAASTRATGIPDRFSGSGSGTDFTLTITRLEPEDFALYYCQHYRSSPPLWTFGQGTKVEIR
no binding (tested: 200 µg/mL): all assays above
